Data from patent US20210139588A1 (STCUBE, published 2021).

B1: anti-glycPD-1 monoclonal antibody STM432 (antibody, V domains shown)
VH: EVMLVEPGGGLVKPGGSLKLSCAASGFTFSSYGMSWVRQTPEKRLEWVATISGGGANTYYPDTVKGRFTISRDNAKNTLYLQMNSLRSEDTALYYCARYGYDTVFAYWGQGTLVTVSA
VL: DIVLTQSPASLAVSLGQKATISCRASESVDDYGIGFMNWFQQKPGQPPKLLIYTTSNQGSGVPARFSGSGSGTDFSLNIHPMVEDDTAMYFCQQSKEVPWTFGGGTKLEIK
notes: Mouse monoclonal antibody from a hybridoma; also called MAb STM432
B2: 4NQ mutant (unglycosylated) PD-1 expressed on 293T cells (PD-1-Flag) (receptor)
chain: LDSPDRPWNPPTFSPALLVVTEGDQATFTCSFSQTSESFVLNWYRMSPSQQTDKLAAFPEDRSQPGQDCRFRVTQLPNGRDFHMSVVRARRQDSGTYLCGAISLAPKAQIKESLRAELRVTERRAEVPTAHPSPSPRPAGQFQTLVVGVVGGLLGSLVLLVWVLAVICSRAARGTIGARRTGQPLKEDPSAVPVFSVDYGELDFQWREKTPEPPVPCVPEQTEYATIVFPSGMGTSSPARRGSADGPRSAQPLRPEDGHCSWPL
notes: also called PD-1 4NQ; not shown: Flag tag

What was measured:
[1] = target: T1, wild type (glycosylated) PD-1 expressed on 293T cells (PD-1-Flag) (human, UniProt Q15116 25-288, N-linked glycosylation at N49, N58, N74 and N116); assay: flow cytometry on 293T cells expressing wild type PD-1 against 293T cells expressing 4NQ PD-1, labeled secondary antibody
T1 construct: also called PD-1 WT; not shown: Flag tag
Description: (§1) Flow Cytometry. Cells overexpressing PD-1 wild type and mutant proteins or control vector were isolated by trypsinization and collected in Cell Staining Buffer (CSB) (BioLegend, San Diego, Calif., US) at 2×10⁶ cells/mL. 50 μL of cells were aliquoted to a 96 well round-bottom plate, to which 50 μL of 20 μg/mL primary antibody was added, followed by gentle mixing and 1 h incubation at 4° C. in the dark. Cells were washed with CSB, incubated with anti-mouse IgG-PE conjugate (10 μg/mL) with DAPI (1:100) 30 minutes 21° C. in the dark. Cells were washed and data acquired using Guava EasyCyte HT (Millipore Darmstadt, Del.) or FACS Celesta (Becton Dickinson, Franklin Lakes, N.J., US) flow cytometer.

[2] = target: T2, N74Q mutant PD-1-Fc protein (Homo sapiens (Human), UniProt Q15116 25-170); assay: Western blot of PD-1-Fc proteins
T2 construct: also called PD-1 with a mutant glycosylation site at position 74; not shown: Fc portion

[3] = target: T3, N49Q mutant PD-1-Fc protein (Homo sapiens (Human), UniProt Q15116 25-170); assay: Western blot of PD-1-Fc proteins
T3 construct: also called PD-1 with a mutant glycosylation site at position 49; not shown: Fc portion

[4] = target: T1, wild type (glycosylated) PD-1 expressed …; assay: inhibition of PD-L1-Fc binding to 293T cells overexpressing PD-1, IncuCyte fluorescence imaging
Description: Green fluorescence was measured every 2 hours by IncuCyte™ Zoom device and quantitated by IncuCyte™ Zoom Software (Essen BioScience, Ann Arbor, Mich., USA).

[5] = target: T4, PD-1-His (Homo sapiens (Human), UniProt Q15116 25-170, limits assumed); assay: BIACORE (SPR), antigen PD-1-His
T4 construct: also called glycosylated PD-1 (BIACORE antigen); not shown: His tag

[6] = target: T1, wild type (glycosylated) PD-1 expressed …; assay: flow cytometry on 293T cells; reference: 4NQ PD-1 cells
Description: as §1

[7] = target: B2; assay: flow cytometry on 293T cells expressing the PD-1 form, labeled secondary antibody
Description: as §1

[8] = target: T1, wild type (glycosylated) PD-1 expressed …; assay: as above
Description: as §1

[9] = target: T5, N49Q mutant PD-1 expressed on 293T cells (PD-1-Flag) (human, UniProt Q15116 25-288); assay: as above
T5 construct: also called N49Q PD-1; not shown: Flag tag
Description: as §1

[10] = target: T6, N58Q mutant PD-1 expressed on 293T cells (PD-1-Flag) (human, UniProt Q15116 25-288); assay: as above
T6 construct: also called N58Q PD-1; not shown: Flag tag
Description: as §1

[11] = target: T7, N74Q mutant PD-1 expressed on 293T cells (PD-1-Flag) (human, UniProt Q15116 25-288); assay: as above
T7 construct: also called N74Q PD-1; not shown: Flag tag
Description: as §1

[12] = target: T8, N116Q mutant PD-1 expressed on 293T cells (PD-1-Flag) (human, UniProt Q15116 25-288); assay: as above
T8 construct: also called N116Q PD-1; not shown: Flag tag
Description: as §1

[13] = target: T8, N116Q mutant PD-1 expressed on 293T …; assay: flow cytometry on 293T cells expressing N116Q PD-1, anti-mouse IgG-PE secondary
Description: as §1

[14] = target: B2; assay: flow cytometry on 293T cells expressing the PD-1 variant, anti-mouse IgG-PE secondary, DAPI-negative population gated; percent of cells right of the dashed gate; 293T blank cells give 2.71
Description: as §1

[15] = target: T5, N49Q mutant PD-1 expressed on 293T …; assay: as above
Description: as §1

[16] = target: T7, N74Q mutant PD-1 expressed on 293T …; assay: as above
Description: as §1

[17] = target: T8, N116Q mutant PD-1 expressed on 293T …; assay: as above
Description: as §1

[18] = target: B2; assay: flow cytometry on 293T cells expressing 4NQ PD-1, anti-mouse IgG-PE secondary
Description: as §1

[19] = target: T7, N74Q mutant PD-1 expressed on 293T …; assay: flow cytometry on 293T cells expressing N74Q PD-1, anti-mouse IgG-PE secondary
Description: as §1

[20] = target: T5, N49Q mutant PD-1 expressed on 293T …; assay: flow cytometry on 293T cells expressing N49Q PD-1, anti-mouse IgG-PE secondary
Description: as §1

[21] = target: T9, recombinant human PD-L1-Fc chimera protein (R&D Systems) (human, UniProt Q9NZQ7 19-239); assay: live-cell imaging (IncuCyte) of labeled PD-L1-Fc on 293T cells
T9 construct: Bought reagent; Used fluorescently labeled or detected with anti-human-Fc Alexa Fluor 488; also called PD-L1-Fc fusion protein; not shown: Fc portion, detected with anti-human IgG
T9 sequence (Q9NZQ7 19-239 limits assumed, change not shown): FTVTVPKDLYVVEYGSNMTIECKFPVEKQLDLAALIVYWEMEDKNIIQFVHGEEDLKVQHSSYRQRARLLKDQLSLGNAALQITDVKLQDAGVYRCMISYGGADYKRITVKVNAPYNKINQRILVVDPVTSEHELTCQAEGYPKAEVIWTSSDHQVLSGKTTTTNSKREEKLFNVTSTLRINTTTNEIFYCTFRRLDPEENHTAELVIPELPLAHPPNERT
Source text: PD-L1 and PD-1 (PD-L1/PD-1) interaction assay. […] The secondary antibodies used were anti-human Alexa Fluor 488 dye conjugate (Life Technologies). The fluorescence intensity of Alexa Fluor 488 dye was then monitored using a real-time microscope IncuCyte (Essen BioScience, Ann Arbor, Mich., USA).
Ligand and receptor binding was quantified by IncuCyte™Zoom every hour, according to the manufacturer's instructions.

With B1 the “fold MFI against binding to the unglycosylated 4NQ mutant PD-1” value [1] was about 43 times, the binding result [2] was “no binding (tested: 0.5 µg protein on the blot)” and the binding result [3] was “no binding (tested: 0.5 µg protein on the blot)”. The EC50 [4] was 0.11 µg/mL, the Kd [5] was 296 nM and the koff [5] was 0.0053 s⁻¹. For the same binder, the kon [5] was 17900 M⁻¹ s⁻¹, the “fold MFI on wild type PD-1 against unglycosylated 4NQ mutant PD-1” value [6] was about 43 fold and the MFI [7] was 26 MFI. For the same binder, the MFI [8] was 1140 MFI, the MFI [9] was 32 MFI and the MFI [10] was 413 MFI. For the same binder, the MFI [11] was 29 MFI, the MFI [12] was 31 MFI and the binding result [13] was “no binding”. The “Unit (%) (cells in the positive gate)” value [14] was 1.82%, the “Unit (%) (cells in the positive gate)” value [15] was 4.6% and the “Unit (%) (cells in the positive gate)” value [16] was 7.71%. For the same binder, the “Unit (%) (cells in the positive gate)” value [17] was 4.12%, the binding result [18] was “no binding” and the binding result [19] was “no binding”. B1: no binding [20].

B2: no binding [21].
